Assay results published in publication PMC9195068, “The action of Con-ikot-ikot toxin on single AMPA-type glutamate receptors” (The Journal of General Physiology, 2022).

Target: the molecule itself
Experiment: non-reducing SDS-PAGE

B1: Con-ikot-ikot toxin (natural protein)
chain: SGPADCCRMKECCTDRVNECLQRYSGREDKFVSFCYQEATVTCGSFNEIVGCCYGYQMCMIRVVKPNSLSGAHEACKTVSCGNPCA
notes: also called CII; CII toxin
- stoichiometry N: 2
